This is an account of results in article PMC2425476 (Nucleic Acids Research, 2008).

Read-outs that look alike come from different tables or passages of the source.

For one data set, the target named is δW279A-γ complex;β clamp (Escherichia coli;Escherichia coli, UniProt P06710-2;P28630;P28631;P28905;P28632;P0A988 1-431;1-343;1-334;1-147;1-137;1-366, W279A|). The data set can be described thus: fluorescence anisotropy. Background: In fluorescence polarisation assays a small probe gives low polarisation when free and higher when bound to something large.
In data set [1] the target is T1, δW279Y-γ complex;β clamp (Escherichia coli;Escherichia coli, UniProt P06710-2;P28630;P28631;P28905;P28632;P0A988 1-431;1-343;1-334;1-147;1-137;1-366, W279Y|). Briefly: fluorescence anisotropy.
The target in data set [2] is γ complex (clamp loader, γ3δδ'χψ), wild type;β clamp (Escherichia coli;Escherichia coli, UniProt P06710-2;P28630;P28631;P28905;P28632;P0A988 1-431;1-343;1-334;1-147;1-137;1-366, |). The data set can be described thus: fluorescence anisotropy.
The target in data set [3] is T1, δW279Y-γ complex;β clamp. The data set can be described thus: fluorescence anisotropy. This is another data set of the same source.
Data set [4] concerns the target δW279A/R277A-γ complex;β clamp (Escherichia coli;Escherichia coli, UniProt P06710-2;P28630;P28631;P28905;P28632;P0A988 1-431;1-343;1-334;1-147;1-137;1-366, R277A;W279A|). Briefly: fluorescence anisotropy.
The target of data set [5] is δW279A/R283A-γ complex;β clamp (Escherichia coli;Escherichia coli, UniProt P06710-2;P28630;P28631;P28905;P28632;P0A988 1-431;1-343;1-334;1-147;1-137;1-366, W279A;R283A|). Briefly: fluorescence anisotropy.
Data set [6] concerns the molecule itself.

B1: 30 nt/55 nt p/tDNA (mixed)
DNA 1: TGAGCGTTTTTCCTGTTGCAATGGCTGGCGGTAATATTGTTCTGGATATTACCAG
DNA 2: CTGGTAATATCCAGAACAATATTACCGCCA
modifications: 5' amino linker on template (S2)
As a reminder, the Kd is a measure of binding affinity in units of concentration. Read a low Kd as a tighter complex. As to B1, the dissociation constant Kd is 590 ± 80 nM with δW279A-γ complex;β clamp, 159 ± 15 nM with δW279Y-γ complex;β clamp [1], 60 ± 10 nM in data set [2] and approximately 800 nM in the data set with δW279Y-γ complex;β clamp [3]. Moreover, the binding result in data set [4] and in data set [5] was “no binding” throughout.

B2: γ subunit of the E. coli clamp loader (γ complex) (natural protein)
chain: MSYQVLARKWRPQTFADVVGQEHVLTALANGLSLGRIHHAYLFSGTRGVGKTSIARLLAKGLNCETGITATPCGVCDNCREIEQGRFVDLIEIDAASRTKVEDTRDLLDNVQYAPARGRFKVYLIDEVHMLSRHSFNALLKTLEEPPEHVKFLLATTDPQKLPVTILSRCLQFHLKALDVEQIRHQLEHILNEEHIAHEPRALQLLARAAEGSLRDALSLTDQAIASGDGQVSTQAVSAMLGTLDDDQALSLVEAMVEANGERVMALINEAAARGIEWEALLVEMLGLLHRIAMVQLSPAALGNDMAAIELRMRELARTIPPTDIQLYYQTLLIGRKELPYAPDRRMGVEMTLLRALAFHPRMPLPEPEVPRQSFAPVAPTAVMTPTQVPPQPQSAPQQAPTVPLPETTSQVLAARQQLQRVQGATKAKKE
B2: the binding result in data set [6] is on record as “binds”.
